Test: yeast display, Sf9 membrane polyspecificity reagent, FACS + sequencing; frameworks hold sequencing errors
How it was run: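 Nanobodies came from a synthetic yeast display library in Saccharomyces cerevisiae BJ5465, induced with galactose for 36–48 hours and stained for 1 hour at 4 °C with 10% biotinylated, detergent-solubilized Sf9 membrane reagent. Cells were enriched on streptavidin microbeads and then FACS-sorted, with low and high (top ~1%) gates set on anti-HA fluorescence for expression and streptavidin fluorescence for reagent binding. Each polyreactivity label reflects the gate a clone came from. Genes were amplified by colony PCR, sequenced by MiSeq 2 × 250 and filtered by CDR length.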

Row | Sequence | polyreactivity (PSR sort gate)
1 | QVQLVESGGGLVQAGGSLRLSCAASGSTFYIYAMGWYRQAPGKDRELVAAISGRGGSTYYADSVKGRFTISRDNAKNTVYLQMNSLKPEDTAVYYCATYSRQDHKYDYWGQGTQVTVSS | high polyreactivity
2 | QVQLVESGGGLVQAGGSLRLSCAASGSTFVGYAMGWYRQAPGKERELVADIDSIGGSTYYADSVKGRFTISRDNAKNTVYLQMNSLKPEDTAVDYCAARRFDTALVLYDYWGQGTQVTVSS | low polyreactivity
3 | QVQLVESGGGLVQAGGSLRLSCAASGNTFWYYAMGWYRQAPGKEREFVAAISRRGTTTYYADSVKWRFTISRDNAKNTVYLQMNSLKPEDTAVYYCAARRYVSVFRVSATGLDLGYWGQGTQVTVSS | high polyreactivity
4 | QVQLVESGGGLVQAGGSLRLSCASSGSTFEANAMGWSRQAPGKDRELVAAISSRGGSTYYADSVKGRFTISRDNGKNTVYFQRNSLKPEDTAVYYCAALLRSGGEYDYWGQGTQVTVSS | high polyreactivity
5 | QVQLVESGGGLVQAGGSLRLSCAVSGRIFRRNVMGWYRQAPGKERELVAGISYSGDSTYYADSVKGRFTLSRDNAKITDYLQMNSLKPEDTAVYYCATRYTYSTDTGYDYWGQGTQVTVSS | low polyreactivity
6 | QVQLEESGGGLVQAGGSLRLSCAASGSIFYKYAMGWYRQAPGKEREFVATIRYSGGSTYYADSVKGRFTISRDNAKNTVYLQMNILKPEDTAVFYCAADAYSYGYDSWGQGTQVTVSS | high polyreactivity
7 | QVQLVESGGGLVQAGGSLRLSCSASGRIFPFNDMGWYRQAPGKEREFVADISDNGGSTYADSVKGRFTISRDNAKNTVYLQMNSLKPEDTAVYYCAADLLDISSYDGMDYWGQGTQVTVSS | low polyreactivity
8 | QVQLVDSCGVLVQAGGSLRLSCAASGITFNLYAMGWYRQAPGKERELVAAISNVGSTKYADSVKGRFTISRDNAKNTVYLQMNSLKPEDTAVYYCAAAQWAYWLLYNYWGQGTQVTVSS | low polyreactivity
9 | QVQLVESGGGLVQAGGSLRLSCAASGSIVSGYAMGCYRQARGKERELVDAITRSGGRTYYADSVKGRFTISRDNAKNTVYLQMNSLKPEDTAVYYCAARGGPGDDYWGQGTQETVSS | high polyreactivity
10 | QVQLVESGGGLVRAGGSLRLSCAASGFIFTSYVMGWYRQAPGKERELVAAITSGNSTYYADSVKGRFTISRDNAKNTVYLQMNSLKPEDTAVYYCTADSYHTYYYWYDYWGLGTQVTVSS | low polyreactivity
11 | QVQLVESGGGLVQAGGSLRLSCAASGITIAGYAMGWYRQAPGKERELVAAITIGGRTYYADSVKGRFTISRDNAKNSVYLQMNSLKPEDTAVYYCAGVVRALTIKYGYWGQGTQVTVSS | high polyreactivity
12 | QVQLVESGGGLVQAGGSLRLSCAASGNIFVAYAMGWYRQAPGKEREMVAAISSRGGRTYYADSVKGRFTISRDNAKNTVYLQMNSLKPEDTAVYYCATDVGYYRKYEYYYWGQGTQVTVSS | high polyreactivity
13 | QVQLVESGGGLVQAGGSLRLSCAASGSIFYTNALGWSRQARGKERELVAAMSISGSTYYADSVKGRFTISRDNAKNTVYLQMNSLKPEDTAVYYCAAGPGYVRYPRSGVWYVTLYDYWGQGTQVTVSS | high polyreactivity
14 | QVQLVESGGGLVQAGGSLRLSCAASGSILPGNTMGWYRQAPGKERELVASISNTGGNTYYADSVKGRFTISRDNAKNTVYLQMNSLKPEDTAVYYCAARFSLWFPTVYWEGILDYWGQGTQVTVSS | low polyreactivity
15 | QVQLVEPGGCLVQAGGSLRLSCAASGSIFAYNSMGSYRQAPGKERELVAAITISGGRTYYADSVKGRFTISRDNAKNTVYLNMNSLKPEDTAVYYCNADNARGRSGVRRYYWGQGTQVTVSS | high polyreactivity
16 | QVQLVESGGGLVQAGGSLRIICAASGRIFSKYARGWYRQAPGKERELVAAISSRGGNTYYADSVKGRFTISRDNAKNTVYLQMTSLKPEDTAVYFCAAGYYYTGYEYDYWGQGTQVTVSS | high polyreactivity
17 | QVQLVESGGGLVQAGGSLRLSCAASGSIFDYYAMGWYRQAPGKERELVASITWSGGRTSYADSVKGRFTISRDNAKNTVYLQMNSLKPEDSAVYYCAAKLWSYAYQHKRVWYYYWGQGTQVTVSS | high polyreactivity
18 | QVQLVESGGGLVQAGGSLRLSCAASGNIFGNNAMGWYRQAPGKERELVAAISSSGTSTYYADSVKGRFTISRDNAKNTVYFQMNSLKPEDTAVYYCNADPLPYDGYYDYDYWGQGTQVTVSS | low polyreactivity
19 | QLRLVESGGGLVQAGGSLRLSCAAYGFIFRNNAMGWYRQAPGKERELVAVISFSGGSTYYADSVKGRFTISRDNAKHTVYLQMNSLKPEDTAVYYCAADDYQVQYDYWGQGTQVTVSS | low polyreactivity
20 | QVQLVESGGGLVQAGGSLRLSCAASGIIFKTYAKGWYRPAPAKERELVAAISRRGGSTYYADSVNGRFTISRDNAKNTVYLQMNSLKPEDTAVYYCAAEYGYVIAYTTRAFYYWGHGTQVTVSS | high polyreactivity
21 | QVQLVESGGGLVQAGGSLRLSCAASGGTFRSYTMGWYRQAPGKERELVAAISWGGSTYYADSVKGRFTISRDNAKNTVYLQMNSLKPEDTAVYYCAADYWSFYRKRDYWGQGTQVTVSS | low polyreactivity
22 | QVQLVESGGGLVQAGGSLRLSCAASGRTFYTNAMGWYRQAPGKERELVAVISRGGTTYYADSVKGRFTISRDNAQNSVSLQMNSLKPDDTAVYYCAKRSPYRYYGYKLRDYWGQGTQVTVSS | low polyreactivity

Row | Sequence | polyreactivity (PSR sort gate)
23 | QVQLVESGGGLVQAGGSLRLSCAASGFIFWSYAMGWYRQAPGKERELVAAISWSGGRTYYADSVKGRFTISRDNAKNTVYLQMNSLKPEDTAVYYCAAVKRYSSQYPALDYWGQGTQVTVSS | high polyreactivity
24 | QVQLVESGGGLVQAGGSLRLSCAPSGSIFYLNAMGWYRQAPGKERELVAAISKRGSRTYYADSVKGRFTISRDNAKNTVYLQMNSLKPEDTAVYYCNALDTPGYNTEPARQYDHWGQGTQVTVSS | high polyreactivity
25 | QVQLVESGGGLVQAGGRLRLSCAASGSTFSRNTMGWYRQAPGKESELVAAISKSGGRTYYADSVKGRFTISRDNAKNTVYLQMNSLKPEDTAVYYCNGVKLLGTRGYGYLGQGTQVTVSS | high polyreactivity
26 | QVQLVESGGGLVQAGGSLRLSCAASGFTFRAYAMGWYRQAPGKEREFVAAISRRGGSTSYADSVKGRFTISRDNAKNTVYLQMNSLKPEDTAVYYCAATYQILTTSAHDSWGQGTQVTVSS | high polyreactivity
27 | QVQLVESGGGLVQAGGSLRLSSAASGRTFVHYAMGWYRQAPGKERELVAAISWSGGSTYYADSVKGRFTISRDNAKNTVYLQMNSLKPEDTAVYYCNAGGFAPGRYGEFDYWGQGTQVTVSS | low polyreactivity
28 | QVQLVESGGGLVQAGGSLRLICAASGRTFYYYAIGWYRQAPGKERELVASISYSAGRTYADSVKGRFTSSRDNAKNTVYLQMNSLKPEDTAVYYCNSDVTTVPYTNDYWGQGTQVTVSS | high polyreactivity
29 | QVQLVESGGGLVQAGGSLRLSCAASGRIFQYNAMGWYRQAPGKERELVAAIRRGGGSTYYADSVKGRFTISRDNAKNTVYLQMNSLKPEDTAVYYCAADASSQIWYYPRDDYWGQGTQVTVSS | low polyreactivity
30 | QVQLVESGGGLVQAGGSLRLSCAASGLIFSGYAMGWYRQAPGKERELVAAISTRGGSTFYADSVKGRFTISRDNAKNTVYLQMNSLKPEDTAVYYCAADGAGGYYYWGQGTQVTVSS | high polyreactivity
31 | QVQLEESGGGLVQAGGSLRLSCAASGFTFYGNAMGWYRQAPGKERELVATIRYRGGRTYYADSVKGRFTISRDNAKNTVYLQMNSLKPEDTAVYYCNRVGYQYGSDQEDDYWGQGTQVTVSS | high polyreactivity
32 | QVQLVESGGGLDQAGGSLRLSCAASGSTFDTYAMGGYRQAPGKERELVAAISVSGTSTSYADSVKGRFTISRDNAKNTVYLQMNILNPEDTAVYYCIATDFSRNPGYARPEYDYWGQGTQVTVSS | low polyreactivity
33 | QVQLVESGGGLVQAGGSLRLSCAASGSTYVYAMGLYRQAPGKERELVASISWSDSSTYYADSVKGRFTISRDNAKNTVYLQMNSLKPEDTAVYYCNADQGTRDSDYWGQGTQVTVSS | low polyreactivity
34 | QVQLVESGGGLVQPGGSLRLSCAASGSIFGSYDMGWYRQAPGKERELVAAITYSVGTTYYADSVKGRFTISRDNAKNTVYLQMNSLKPEDNAVYYCAADFAPVGLPSPFAVSEGEDDYWGQGTQVTVSS | low polyreactivity
35 | QVQLVESGGGLVQAGGSLRLICAASGNIFYIYAMVWDRQAPWKERELVAAISWSCCSTYYADSVKGRFTISRDNAKNTVYCQMNSLKPEDTSVYYCDVEFTPKRWVSYRTMYSWGQGTQVTVSS | high polyreactivity
36 | QVQLVESGGGLVQAGGSLRLSCAASGRTFYEYTMGWYRQAPGKERELVAAITWSVGSTYYADSVKGRFTISRDNAKNTVYLQMNSLKPEDTAVYYCAAYYYVWYYYWGQGTQVTVSS | low polyreactivity
37 | QVQLVESGGGLVQAGGSLRLICAASGRISGRYAMGWYRQAPGKERELVAAITSRGGRTYYADSVKGRFTISRDNAKNTVYLQMNSLKPEDTAVYYCIAVGGYWFDYWGQGTQVTVSS | high polyreactivity
38 | QVQLVESCGGLVQAGGSLRLSCAASGFTFVYYAMGWYRKAPGKEREFVAAISKSGGSTYYADSVKGRFTISRDNAKNTVYLQMNSLKPEDTAVYYCAARSYQGTSSGRVTRRYDYWGQGTQVTVSS | high polyreactivity
39 | QVQLVESCGGLVQAGGSLRLSCAATGSTIRTYAMGWYRQAPGTERELVAAISRSGGRTYYADSVKGRFTISRDNAKNTVYLQMNSLTPEDTAVYYCAKVSQRRVDTSDYDYWGQGTQVTVSS | high polyreactivity
40 | QVQLVESGGGLVQAGGSLRLSCAASGSIFAWNAMGWYRQAPGKERELVATIRSTGGSTYYADSVKGRFTISRDNAKNTVYLQMNSLKPEYTAVYYCAADYQAGDKLYDYWGQGTQVTVSS | low polyreactivity
41 | QVQLVESGGGLVQAGGSLRLSCAASGGIFTRNDMGWYRQAPGKERELVAGISWRGGSTYYADSVKGRFTISRDNAKNTVYLQMNSLKPEDTAVYYCAADLDSDFDYWGQGTQVTVSS | low polyreactivity
42 | QVQLVESGGGLVQAGGSLRLSCAASGLTFYIYAMGWSRQAPGKERELVAGISWIGGRTYYADSVKGRFTISRDNAKNTVYLQLNSLKPEDTAVYYCIAYLSYTSRGRYYKYDYWGQGTQVTVSS | high polyreactivity
43 | QVHLVESGGGLVQAGGSLRLSCAASGRILVRYAMGWYRQAPGKERELVAAISSSGSSTYYADSVKGRFTISRDNAKNTVYLQMNSLKPEDTAVYYCNKPDVTRGRDVYYWGQGTQVTVSS | low polyreactivity
